Test results reported in article PMC6031666.

System: His51
Experiment: NMR
Settings: 298 K; 100 mM NaCl, 5 mM CaCl2; 20 mM deuterated MES (pH 5.5, 6.0, 6.5, 7.2, 8.5) or 20 mM deuterated Tris (pH 8.5), 0.02% NaN3; Inhibitor-bound (Bz-Nle-Lys-Arg-Arg-B(OH)2, a tetrahedral transition-state mimic), NS2B-bound, folded. Two complex forms are in equilibrium.

## NS3 serine protease domain (NS3pro) in complex with NS2B cofactor segment (Dengue virus type 2 (DENV2))
  pKa: remain fully protonated over the investigated pH range (5.5–8.5)
